Measured values from publication PMC7070046, “Sjögren syndrome/scleroderma autoantigen 1 is a direct Tankyrase binding partner in cancer cells” (Communications Biology, 2020).
Where no end group is shown, it is not given here.

T1: TNKS1 ARC subdomains 1–3 (ARC1–3, residues 178–645) (human, UniProt O95271 178-645)
T1 chain: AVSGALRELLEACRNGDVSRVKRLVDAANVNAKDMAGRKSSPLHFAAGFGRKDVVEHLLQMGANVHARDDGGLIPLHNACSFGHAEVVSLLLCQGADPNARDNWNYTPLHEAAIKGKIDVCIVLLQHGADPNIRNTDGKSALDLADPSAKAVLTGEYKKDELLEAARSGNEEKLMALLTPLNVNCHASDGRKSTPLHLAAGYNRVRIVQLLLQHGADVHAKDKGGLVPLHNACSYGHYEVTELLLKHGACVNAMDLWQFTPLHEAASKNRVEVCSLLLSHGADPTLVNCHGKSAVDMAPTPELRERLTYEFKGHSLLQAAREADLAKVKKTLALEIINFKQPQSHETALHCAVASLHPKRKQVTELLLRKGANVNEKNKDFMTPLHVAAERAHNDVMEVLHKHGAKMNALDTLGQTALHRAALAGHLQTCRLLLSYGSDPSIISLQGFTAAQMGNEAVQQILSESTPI

T2: TNKS1 ARC subdomains 1–3 (ARC1–3, residues 178–645) (human, UniProt O95271 178-645)
T2 construct: human Tankyrase 1, ankyrin repeat clusters 1-3, residues 178-645; Cloned into pETM11 with NcoI and XhoI; also called TNKS1 ARC1–3
T2 sequence (looked up): T1 chain

B1: SSSCA1-H1 peptide (DVMACTQTALLQKLTWASAELGSS) (peptide)
peptide: DVMACTQTALLQKLTWASAELGSS
modifications: not fully specified (N-terminus); also: 5-FAM-Ahx-conjugated
notes: human SSSCA1, helix H1 region; source: synthetic peptide (bought: GenScript)
B2: Axin1 positive control peptide (EDAPRPPVPGEEG) (peptide)
peptide: EDAPRPPVPGEEG
modifications: not fully specified (N-terminus); also: 5-FAM-Ahx-conjugated
notes: source: synthetic peptide (bought: GenScript)
B3: SSSCA1-H2 peptide (TSLETSIQLCGLIRACAEALRSLQQL) (peptide)
peptide: TSLETSIQLCGLIRACAEALRSLQQL
modifications: not fully specified (N-terminus); cysteine pairing not given here; also: 5-FAM-Ahx-conjugated
B4: SSSCA1-H2 peptide (TSLETSIQLCGLIRACAEALRSLQQL) (peptide)
peptide: TSLETSIQLCGLIRACAEALRSLQQL
modifications: cysteine pairing not given here; also: 5-FAM-Ahx conjugate, position not given here
notes: human SSSCA1, helix H2 region; source: synthetic peptide (bought: GenScript)
B5: SSSCA1 N-terminal Auto_anti-p27 domain (M1-S111) (domain or fragment, human, UniProt O60232 1-111, looked up)
chain: MALNGAEVDDFSWEPPTEAETKVLQARRERQDRISRLMGDYLLRGYRMLGETCADCGTILLQDKQRKIYCVACQELDSDVDKDNPALNAQAALSQAREHQLASASELPLGS
notes: Residues 1-12 and 78-111 are not modelled in the crystal structure; also called N-terminal SSSCA1; hSSSCA1; not shown: His6, N-terminal, cleaved

Legend:
[1] = biological target: T1, TNKS1 ARC subdomains 1–3 (ARC1–3, …); test: FP
[2] = biological target: T2, TNKS1 ARC subdomains 1–3 (ARC1–3, …); test: fluorescence polarisation; 50 nM 5-FAM-Ahx peptide with varied ARC1–3 protein; 25 mM HEPES pH 8, 150 mM NaCl, 1 mM TCEP, 5% glycerol, 0.05% CHAPS; room temperature, 60 min; one-site total binding model; conditions: both partners purified
[3] = biological target: the molecule itself; test: SEC; HiLoad Superdex S75 16/600; 20 mM HEPES pH 7.4, 200 mM NaCl, 5% glycerol, 0.1 mM TCEP; elution compared with standard proteins (estimated native MW 24.6 kDa, predicted 12.5 kDa)

Binder | Kd [1] [nM] | binding result [2] | stoichiometry N [3]
B1 | 460 | binds | 
B2 | 460 | binds | 
B3 | 60 |  | 
B4 |  | binds | 
B5 |  |  | 2
